Laboratory results published in PMC2120374 (The Journal of Cell Biology, 1995).

Target: T1, Mas70p (S. cerevisiae (endogenous in yeast …, UniProt P07213 1-617))
T1 sequence (looked up): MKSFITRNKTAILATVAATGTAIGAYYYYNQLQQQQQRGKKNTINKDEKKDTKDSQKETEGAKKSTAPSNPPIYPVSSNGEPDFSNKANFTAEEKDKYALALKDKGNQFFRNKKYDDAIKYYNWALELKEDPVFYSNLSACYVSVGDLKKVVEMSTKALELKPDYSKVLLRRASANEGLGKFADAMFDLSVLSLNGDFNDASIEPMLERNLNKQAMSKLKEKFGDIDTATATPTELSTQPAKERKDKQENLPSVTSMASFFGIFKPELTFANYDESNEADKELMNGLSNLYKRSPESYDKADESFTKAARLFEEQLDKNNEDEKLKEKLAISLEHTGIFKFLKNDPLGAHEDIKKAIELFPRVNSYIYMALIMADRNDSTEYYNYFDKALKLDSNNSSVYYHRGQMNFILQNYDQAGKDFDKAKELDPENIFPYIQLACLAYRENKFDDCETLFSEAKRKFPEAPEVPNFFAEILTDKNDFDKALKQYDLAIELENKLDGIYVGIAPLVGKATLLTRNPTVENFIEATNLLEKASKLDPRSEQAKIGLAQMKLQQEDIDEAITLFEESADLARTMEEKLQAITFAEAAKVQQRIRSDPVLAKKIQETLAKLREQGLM
Test: co-IP

stoichiometry N: 1 mol Mas37p per mol Mas70p
B1: Mas37p (natural protein)
chain: MVKGSVHLWGKDGKASLISVDSIALVWFIKLCTSEEAKSMVAGLQIVFSNNTDLSSDGKLPVLILDNGTKVSGYVNIVQFLHKNICTSKYEKGTDYEEDLAIVRKKDRLLEYSLLNYVDVEISRLTDYQLFLNTKNYNEYTKKLFSKLLYFPMWYNTPLQLRSQARENCEEIIGSLTLEDDEEFVESKAMESASQLAQSKTFKIAHKNKIKGKQELQQVKYNLQFDNRLQSCVSNWLAARKKLDDSVILSSDLLFLANLYVQLGLPDGNRIRSKLEQTFGSELLNSMSNKIDDFVHRPSNNLEQRDPQFREQGNVVMSLYNLACKYI
